Test system: DUX4-FL (DUX4 ORF + 3'UTR, RenLuc-DUX4-FL)
Assay: Dual-luciferase assay, RenLuc-DUX4-FL reporter co-transfected with miRNA plasmids in HEK293 cells
Assay type: cell-based, human
From the text: FIG. 1A. Dual-luciferase assay to test the ability of U6.mir-675 to target DUX4. Shown here is the mir-675 expression plasmid used in this study. In this construct, the RNA polymerase III U6 promoter (U6p) controls the expression of mir-675. A terminal signal formed of a stretch of six T nucleotides allows the termination of transcription. On the right, the secondary structure of the mir-675 along with its 5′ and 3′ end flanking sequences (Boxed) is shown. At the 5′ end, the flanking sequence is of 40 nucleotides long and at the 3′ end, the flanking sequence is of 47 nucleotides long starting from the nucleotide at position 114. U6.mir-675 was tested to target DUX4 using the dual-luciferase assay. To do this, DUX4 was cloned in the RenLuc-DUX4-FL expression plasmid (FIG. 1A), i.e., DUX4-FL (DUX4 ORF without V5 tag+3′UTR) was PCR amplified using CMV.DUX4-FLΔV5 as template with the following primers: forward: 5′ […] 3′ (SEQ ID NO: 125), reverse: 5′ […] 3′ (SEQ ID NO: 126). The PCR product was then cloned into a previously designed RenLuc SD5 mutant plasmid using XhoI/SpeI restriction sites and the RenLuc.SD5 mutant-DUX4 3′UTR plasmid backbone. The Renilla luciferase gene has a splicing donor mutation (*SID5) that prevents the alternative splicing of the DUX4-FL mRNA (Ansseau et al. (2015) PLoS One, 10, e0118813). The dual-luciferase assay was performed by co-transfecting the RenLuc-DUX4-FL and U6.mir-675 expression plasmids into the human embryonic kidney HEK293 cells. 48 hours after transfection, both the Renilla and Firefly luciferase activities were measured. The latter was used to normalize for Renilla luciferase activity. The non-targeting RenLuc control backbone plasmid (RenLuc) was co-transfected with U6.mir-675 and the RenLuc-DUX4-FL co-transfected with U6.milacZ as negative control reactions. In the other reactions, mir-675 reduced the relative Renilla luciferase activity by 24±3% (P<0.0001, ANOVA, N=3), 28±2% (P<0.0001, ANOVA, N=3) and 33±3% (P<0.0001, ANOVA, N=3) at a molarity ratio U6.mir-675: RenLuc-DUX4-FL (n:n) of 10 to 1, 20 to 1 and 40 to 1, respectively. All readings were normalized to the U6.milacZ (negative control). Six replicate data were averaged per experiment and individual experiments were performed in triplicate (N=3). Results were reported as the average relative Renilla luciferase activity±SEM for all combined experiments. […] A representative western blot gel and the quantification results of three independent western blot replicates (N=3) performed on 15 μg of total protein extracts collected from HEK293 cells 24 hours after co-transfection with the AAV.CMV.DUX4-FL and the U6.mir-675 or the human long non-coding H19 expression plasmid (CMV.H19) is shown here. […]

B1: U6.mir-675: U6 promoter-driven mir-675 expression plasmid with 40 nt 5' and 47 nt 3' flanking sequences (nucleic acid)
DNA: GACGCCGCCATCTCTAGGCCCGCGCCGGCCCCCTCGCACAGACTTGTGGGAGAAGCTCGGCTACTCCCCTGCCCCGGTTAATTTGCATATAATATTTCCTAGTAACTATAGAGGCTTAATGTGCGATAAAAGACAGATAATCTGTTCTTTTTAATACTAGCTACATTTTACATGATAGGCTTGGATTTCTATAAGAGATACAAATACTAAATTATTATTTTAAAAAACAGCACAAAAGGAAACTCACCCTAACTGTAAAGTAATTGTGTGTTTTGAGACTATAAATATCCCTTGGAGAAAAGCCTTGTTTGCGTTTAGTGAACCGTCAGATGGTACCGTTTAAACTCGAGCCCAGGGTCTGGTGCGGAGAGGGCCCACAGTGGACTTGGTGACGCTGTATGCCCTCACCGCTCAGCCCCTGGGACTAGAGCGGCCGCCACAGCGGGGAGATCCAGACATGATAAGATACATTTTTT
reduction of relative Renilla luciferase activity (miRNA:RenLuc-DUX4-FL molar ratio 10 to 1, 48 h, normalized to U6.milacZ): 24±3%
reduction of relative Renilla luciferase activity (miRNA:RenLuc-DUX4-FL molar ratio 20 to 1, 48 h, normalized to U6.milacZ): 28±2%
reduction of relative Renilla luciferase activity (miRNA:RenLuc-DUX4-FL molar ratio 40 to 1, normalized to milacZ): 33±3%

From patent US20240093191A1, “COMPOSITIONS AND METHODS FOR TREATING DISEASE ASSOCIATED WITH DUX4 OVEREXPRESSION” (RESEARCH INSTITUTE AT NATIONWIDE CHILDREN'S HOSPITAL, priority 2021, published 2024)
